In patent US20200241008:

B1: MMP11 (Enzo) (protein)
chain: FVLSGGRWEKTDLTYRILRFPWQLVQEQVRQTMAEALKVWSDVTPLTFTEVHEGRADIMIDFARYWHGDDLPFDGPGGILAHAFFPKTHREGDVHFDYDETWTIGDDQGTDLLQVAAHEFGHVLGLQHTTAAKALMSAFYTFRYPLSLSPDDCRGVQHLYGQPWPTVTSRTPALG
B2: MMP7 (Enzo) (protein)
chain: YSLFPNSPKWTSKVVTYRIVSYTRDLPHITVDRLVSKALNMWGKEIPLHFRKVVWGTADIMIGFARGAHGDSYPFDGPGNTLAHAFAPGTGLGGDAHFDEDERWTDGSSLGINFLYAATHELGHSLGMGHSSDPNAVMYPTYGNGDPQNFKLSQDDIKGIQKLYGKRSNSRKK
B3: MMP1 (Enzo) (protein)
chain: FVLTEGNPRWEQTHLTYRIENYTPDLPRADVDHAIEKAFQLWSNVTPLTFTKVSEGQADIMISFVRGDHRDNSPFDGPGGNLAHAFQPGPGIGGDAHFDEDERWTNNFREYNLHRVAAHELGHSLGLSHSTDIGALMYPSYTFSGDVQLAQDDIDGIQAIYGRSQNPVQP
B4: MMP12 (Enzo) (protein)
chain: GPVWRKHYITYRINNYTPDMNREDVDYAIRKAFQVWSNVTPLKFSKINTGMADILVVFARGAHGDFHAFDGKGGILAHAFGPGSGIGGDAHFDEDEFWTTHSGGTNLFLTAVHEIGHSLGLGHSSDPKAVMFPTYKYVDINTFRLSADDIRGIQSLYG

Target: T1, indicator molecule containing the cleavable sequence (GPQGIFGQ) with a terminal biotin group connected via a polyethylene glycol spacer/linker, intact
T1 chain: GPQGIFGQ

B1 was tested. Which reader value at 0.5 µg/ml MMP (lateral flow) did it give?
The reader value at 0.5 µg/ml MMP (lateral flow) was 280 reader units.

How did the reader value at 0.5 µg/ml MMP (lateral flow) turn out when B2 was run?
Its reader value at 0.5 µg/ml MMP (lateral flow) is 373 reader units.

B3 was tested. Which reader value at 0.5 µg/ml MMP (lateral flow) did it give?
Its reader value at 0.5 µg/ml MMP (lateral flow) is 478 reader units.

With B4 as the protein, how does the reader value at 0.5 µg/ml MMP (lateral flow) read?
Its reader value at 0.5 µg/ml MMP (lateral flow) is 1250 reader units.
